Assay results: publication PMC10268231 (Nature, 2021)

Experiments:
Assay in all cases: cryo-EM structure
PRIM2 = target: T1, PRIM2 (human, UniProt P49643-1 1-509)
T1 sequence (looked up): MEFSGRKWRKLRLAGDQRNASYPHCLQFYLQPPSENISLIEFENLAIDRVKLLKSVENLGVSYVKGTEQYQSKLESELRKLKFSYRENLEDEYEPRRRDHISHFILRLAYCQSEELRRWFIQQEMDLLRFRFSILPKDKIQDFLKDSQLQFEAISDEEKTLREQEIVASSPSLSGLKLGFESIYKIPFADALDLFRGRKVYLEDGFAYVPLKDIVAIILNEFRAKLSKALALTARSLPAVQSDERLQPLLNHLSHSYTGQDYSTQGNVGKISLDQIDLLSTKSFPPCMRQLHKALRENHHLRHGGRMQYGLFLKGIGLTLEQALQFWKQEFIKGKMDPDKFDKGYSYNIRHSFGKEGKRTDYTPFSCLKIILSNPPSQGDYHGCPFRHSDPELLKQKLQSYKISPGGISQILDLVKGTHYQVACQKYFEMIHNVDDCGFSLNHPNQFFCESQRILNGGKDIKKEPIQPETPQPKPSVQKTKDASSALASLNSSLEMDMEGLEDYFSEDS

PRIM1 = target: T2, PRIM1 (human, UniProt P49642 2-420)
T2 sequence: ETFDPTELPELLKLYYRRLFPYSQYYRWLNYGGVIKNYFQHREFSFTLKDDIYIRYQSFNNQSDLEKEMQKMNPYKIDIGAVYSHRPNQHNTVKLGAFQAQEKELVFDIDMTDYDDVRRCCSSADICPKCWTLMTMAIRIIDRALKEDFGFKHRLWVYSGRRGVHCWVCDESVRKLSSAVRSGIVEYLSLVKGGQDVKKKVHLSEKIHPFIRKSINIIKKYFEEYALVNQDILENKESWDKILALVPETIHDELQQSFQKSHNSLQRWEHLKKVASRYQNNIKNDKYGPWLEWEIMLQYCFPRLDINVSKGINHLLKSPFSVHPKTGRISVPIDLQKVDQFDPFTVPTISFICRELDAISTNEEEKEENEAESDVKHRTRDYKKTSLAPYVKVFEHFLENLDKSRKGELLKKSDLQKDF

POLA2 = target: T3, POLA2 (human, UniProt Q14181-1 1-598)
T3 sequence (looked up): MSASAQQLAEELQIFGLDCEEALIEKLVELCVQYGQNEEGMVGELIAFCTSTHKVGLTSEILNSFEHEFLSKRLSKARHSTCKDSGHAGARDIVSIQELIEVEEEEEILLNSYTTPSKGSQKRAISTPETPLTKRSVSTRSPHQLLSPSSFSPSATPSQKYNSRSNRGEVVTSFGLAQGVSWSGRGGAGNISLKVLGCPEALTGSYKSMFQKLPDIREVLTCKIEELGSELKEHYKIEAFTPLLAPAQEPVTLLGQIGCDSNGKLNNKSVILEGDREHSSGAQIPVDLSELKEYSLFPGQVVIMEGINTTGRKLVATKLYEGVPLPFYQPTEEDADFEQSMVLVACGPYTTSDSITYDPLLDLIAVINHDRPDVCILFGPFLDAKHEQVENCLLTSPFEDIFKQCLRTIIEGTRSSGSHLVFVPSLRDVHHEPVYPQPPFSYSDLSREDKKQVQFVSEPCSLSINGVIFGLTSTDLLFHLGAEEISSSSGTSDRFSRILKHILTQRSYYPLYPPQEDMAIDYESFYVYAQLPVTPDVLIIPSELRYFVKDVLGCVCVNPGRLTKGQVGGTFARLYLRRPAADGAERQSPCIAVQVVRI

STN1 = target: T4, STN1 (human, UniProt Q9H668 2-368)
T4 sequence: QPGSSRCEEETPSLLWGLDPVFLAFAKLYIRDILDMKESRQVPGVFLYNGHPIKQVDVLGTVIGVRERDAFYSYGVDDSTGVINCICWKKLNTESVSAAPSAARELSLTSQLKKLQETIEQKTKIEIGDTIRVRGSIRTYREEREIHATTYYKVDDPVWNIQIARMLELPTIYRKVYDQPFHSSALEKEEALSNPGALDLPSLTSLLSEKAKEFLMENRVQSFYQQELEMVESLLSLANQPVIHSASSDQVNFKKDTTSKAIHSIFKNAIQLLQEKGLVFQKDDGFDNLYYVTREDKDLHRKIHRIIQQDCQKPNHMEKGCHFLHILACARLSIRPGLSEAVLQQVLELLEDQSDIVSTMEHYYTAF

[1] = target: DNA polymerase-α–primase (Polα–primase) complex, PRIM1–PRIM2–POLA1–POLA2, full-length (human, UniProt P09884 1-1462; Q14181-1 1-598; P49642 2-420; P49643-1 1-509)
POLA1 = target: T5, POLA1 (human, UniProt P09884 1-1462)
T5 sequence (looked up): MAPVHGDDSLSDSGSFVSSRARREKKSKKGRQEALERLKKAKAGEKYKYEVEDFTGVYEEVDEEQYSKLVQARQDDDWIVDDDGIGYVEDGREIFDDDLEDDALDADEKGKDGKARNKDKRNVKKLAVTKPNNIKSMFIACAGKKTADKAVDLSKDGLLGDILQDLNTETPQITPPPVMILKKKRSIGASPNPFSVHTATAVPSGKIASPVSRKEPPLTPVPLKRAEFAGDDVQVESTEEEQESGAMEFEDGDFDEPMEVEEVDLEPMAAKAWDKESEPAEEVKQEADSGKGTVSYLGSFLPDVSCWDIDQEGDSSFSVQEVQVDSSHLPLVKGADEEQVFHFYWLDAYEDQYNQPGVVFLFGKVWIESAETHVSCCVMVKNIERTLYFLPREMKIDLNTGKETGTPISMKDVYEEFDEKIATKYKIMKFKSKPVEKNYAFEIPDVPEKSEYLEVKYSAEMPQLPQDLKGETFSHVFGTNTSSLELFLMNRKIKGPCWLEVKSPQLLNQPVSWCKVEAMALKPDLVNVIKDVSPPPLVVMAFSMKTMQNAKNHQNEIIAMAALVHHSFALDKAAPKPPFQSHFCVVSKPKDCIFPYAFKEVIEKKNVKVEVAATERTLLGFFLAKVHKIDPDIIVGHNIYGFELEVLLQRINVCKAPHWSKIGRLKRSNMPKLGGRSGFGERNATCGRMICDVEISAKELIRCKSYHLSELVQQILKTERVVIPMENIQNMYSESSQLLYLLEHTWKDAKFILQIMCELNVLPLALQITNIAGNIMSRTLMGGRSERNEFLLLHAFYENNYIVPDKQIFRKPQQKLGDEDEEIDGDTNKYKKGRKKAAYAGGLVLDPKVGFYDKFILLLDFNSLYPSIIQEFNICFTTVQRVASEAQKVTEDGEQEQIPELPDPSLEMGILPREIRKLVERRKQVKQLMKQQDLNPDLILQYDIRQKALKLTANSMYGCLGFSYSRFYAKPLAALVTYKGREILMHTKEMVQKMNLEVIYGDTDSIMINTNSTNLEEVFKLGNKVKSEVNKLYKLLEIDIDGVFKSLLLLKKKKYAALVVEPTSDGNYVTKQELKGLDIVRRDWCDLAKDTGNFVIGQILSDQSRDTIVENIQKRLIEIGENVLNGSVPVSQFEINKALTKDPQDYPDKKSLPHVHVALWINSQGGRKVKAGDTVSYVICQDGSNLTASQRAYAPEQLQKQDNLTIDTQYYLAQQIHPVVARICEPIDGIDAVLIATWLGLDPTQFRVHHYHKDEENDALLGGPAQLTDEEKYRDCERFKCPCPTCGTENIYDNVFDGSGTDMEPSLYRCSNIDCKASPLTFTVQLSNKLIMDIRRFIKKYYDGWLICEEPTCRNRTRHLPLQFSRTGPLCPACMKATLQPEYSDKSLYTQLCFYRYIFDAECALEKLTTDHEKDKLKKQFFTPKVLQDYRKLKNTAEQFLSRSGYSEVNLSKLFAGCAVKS

B1: TEN1 (natural protein, human)
chain: LPKPGTYYLPWEVSAGQVPDGSTLRTFGRLCLYDMIQSRVTLMAQHGSDQHQVLVCTKLVEPFHAQVGSLYIVLGELQHQQDRGSVVKARVLTCVEGMNLPLLEQAIREQRLYKQERGGSQ
PRIM2
  binding result: binds
PRIM1
  binding result: binds
POLA2
  binding result: binds
STN1
  binding result: binds

B2: CTC1–STN1–TEN1 (CST) complex (complex, human)
chain 1: MAAGRAQVPSSEQAWLEDAQVFIQKTLCPAVKEPNVQLTPLVIDCVKTVWLSQGRNQGSTLPLSYSFVSVQDLKTHQRLPCCSHLSWSSSAYQAWAQEAGPNGNPLPREQLLLLGTLTDLSADLEQECRNGSLYVRDNTGVLSCELIDLDLSWLGHLFLFPRWSYLPPARWNSSGEGHLELWDAPVPVFPLTISPGPVTPIPVLYPESASCLLRLRNKLRGVQRNLAGSLVRLSALVKSKQKAYFILSLGRSHPAVTHVSIIVQVPAQLVWHRALRPGTAYVLTELRVSKIRGQRQHVWMTSQSSRLLLLKPECVQELELELEGPLLEADPKPLPMPSNSEDKKDPESLVRYSRLLSYSGAVTGVLNEPAGLYELDGQLGLCLAYQQFRGLRRVMRPGVCLQLQDVHLLQSVGGGTRRPVLAPCLRGAVLLQSFSRQKPGAHSSRQAYGASLYEQLVWERQLGLPLYLWATKALEELACKLCPHVLRHHQFLQHSSPGSPSLGLQLLAPTLDLLAPPGSPVRNAHNEILEEPHHCPLQKYTRLQTPSSFPTLATLKEEGQRKAWASFDPKALLPLPEASYLPSCQLNRRLAWSWLCLLPSAFCPAQVLLGVLVASSHKGCLQLRDQSGSLPCLLLAKHSQPLSDPRLIGCLVRAERFQLIVERDVRSSFPSWKELSMPGFIQKQQARVYVQFFLADALILPVPRPCLHSATPSTPQTDPTGPEGPHLGQSRLFLLCHKEALMKRNFCVPPGASPEVPKPALSFYVLGSWLGGTQRKEGTGWGLPEPQGNDDNDQKVHLIFFGSSVRWFEFLHPGQVYRLIAPGPATPMLFEKDGSSCISRRPLELAGCASCLTVQDNWTLELESSQDIQDVLDANKSLPESSLTDLLSDNFTDSLVSFSAEILSRTLCEPLVASLWMKLGNTGAMRRCVKLTVALETAECEFPPHLDVYIEDPHLPPSLGLLPGARVHFSQLEKRVSRSHNVYCCFRSSTYVQVLSFPPETTISIPLPHIYLAELLQGGQSPFQATASCHIVSVFSLQLFWVCAYCTSICRQGKCTRLGSTCPTQTAISQAIIRLLVEDGTAEAVVTCRNHHVAAALGLCPREWASLLDFVQVPGRVVLQFAGPGAQLESSARVDEPMTMFLWTLCTSPSVLRPIVLSFELERKPSKIVPLEPPRLQRFQCGELPFLTHVNPRLRLSCLSIRESEYSSSLGILASSC
chain 2: T4 sequence
chain 3: B1 chain
[1]
  stoichiometry N: 1

B3: CTC1 (natural protein, human, UniProt Q2NKJ3 1-1217, looked up)
chain: B2 chain 1
POLA1
  binding result: binds
